Test results as given in article PMC6877527, “Sugar-mediated regulation of a c-di-GMP phosphodiesterase in Vibrio cholerae” (Nature Communications, 2019).

Key:
GST-PdeS (V. cholerae) = assay: MST; NanoTemper Monolith NT.115pico; GST-PdeS labeled with NT-647 at 4.875 nM; unlabeled EIIA^Glc titrated in 1:1 serial dilutions from 21.9 uM; 25 mM HEPES-NaOH pH 7.6, 100 mM NaCl, 5 mM beta-mercaptoethanol, 0.5 mg/ml BSA, 0.05% Tween 20; 15% LED power, 30% MST power, 22 C
VC1710 (PdeS) = molecular target: T1, VC1710 (PdeS) (Vibrio cholerae, UniProt Q9KRD2); assay: biochemical
T1 construct: gene VC_1710

Row | Compound | Kd (GST-PdeS (V. cholerae)) [nM] | Kd (VC1710 (PdeS)) [nM]
1 | hexahistidine-tagged EIIA^Glc, dephosphorylated form (natural protein) | 114 | –
2 | Nc1nc2c(ncn2[C@@H]2O[C@@H]3CO[P@](=O)(O)O[C@H]4[C@@H](O)[C@H](n5cnc6c(=O)[nH]c(N)nc65)O[C@@H]4CO[P@](=O)(O)O[C@H]3[C@H]2O)c(=O)[nH]1 [c-di-GMP] | – | ~8700
3 | hexahistidine-tagged EIIA^Glc, phosphorylated form (natural protein) | 287 | –
